According to patent publication US10272135B2, “Apolipoprotein O and fragments thereof for inducing apoptosis in a cancerous cell” (INSERM (INSTITUT NATIONAL DE LA SANTÉ ET DE LA RECHERCHE …, priority 2014, dated 2019):

What was measured:
[1] = test system: mouse liver; experiment: Hydrodynamics-based in vivo transfection of the mouse liver
Description: After ethical committee approval, all patients in this study gave written consent for sample collection and molecular analysis prior to inclusion. Patients were carefully selected by physicians from the Department of Cardiology, Toulouse University Hospital, prior to coronary by-pass surgery. Bioinformatics. Microarray expression data from human heart samples were downloaded from the GEO repository (GSE1145). This series consisted of 107 myocardial samples collected from patients undergoing cardiac transplantation whose failure arises from different etiologies (e.g. idiopathic dilated cardiomyopathy, ischemic cardiomyopathy, valvular cardiomyopathy, and hypertrophic cardiomyopathy) and from “normal” organ donors whose hearts cannot be used for transplants. Arrays were intensity normalized and hierarchical clustering (average group linkage, Pearson correlation, threshold r=0.8) was applied to identify groups of co-expressed genes. ApoO expression levels were plotted for the 107 human hearts tested and used to define relevant molecular pathways using both Toppgene and Ingenuity Pathway Analysis (Ingenuity systems, Redwood City, Calif., USA). ApoO subcellular localization was predicted using Mitopred, mitoprot and YLoc. Animals: All animal Studies followed the INSERM Institute Animal Facility guidelines and were approved by the animal care committees of the INSERM I2MC UMR 1048. All animal procedures were performed according to the guidelines of the French Ministry of Agriculture. Animals were housed at the Toulouse I2MC animal facility in a room lit 12 h per day (6 AM-6 PM) at an ambient temperature of 22+/−1° C. Construction of ApoO Expression Vectors To overexpress human ApoO (pTT-ApoO), the ApoO coding sequence was amplified using primers hApoO5BamPTT (SEQ ID NO: 2) and hApoO3BamPTT (SEQ ID NO: 3) and cloned into the BamH1 site of pTT expression vector. pSNAP-ApoO was generated by PCR amplification of pTT-ApoO using primers SnapApoEcorV-F (SEQ ID NO: 4) and SnapApoEcorV-R (SEQ ID NO: 5) and cloned into the EcoRV site of pSNAP-Tag® (Ozyme, Saint-Quentin-en-Yvelines, France). pGEX2T-ApoO was constructed by PCR amplification of pTT-ApoO using hApoOpGEX1FBam (SEQ ID NO: 6) and hApoOpGEX1RSma (SEQ ID NO: 7) and cloned into the Bam HI/Sma I site of pGEX2T (Promega, Charbonnières-les-Bains). All primers used in this work were synthesized by Eurogentec France (Angers). All restriction enzymes used were from New England Biolabs (Ozyme, Saint-Quentin-en-Yvelines). All ApoO sequences within the expression vectors were verified by DNA double strand sequencing using ABI PRISM®BigDye™ Terminator version 3.1 Ready reaction cycle sequencing kit (Life Technologies SAS, Villebon sur Yvette) and loaded on an ABI 3130XL DNA sequencing instrument (Life Technologies SAS, Villebon sur Yvette). Cell Culture and Tranfection of H9C2 Cardic Myoblasts H9c2 were obtained from the European Collection of Cell Cultures (Salisbury, England). H9c2 cells were cultured in Dulbecco's modified Eagle medium (Life Technologies SAS, Villebon sur Yvette) adjusted to contain 1.5 g/liter sodium bicarbonate and supplemented with antibiotic-antimycotic solution (Life Technologies SAS, Villebon sur Yvette) and 10% fetal bovine serum (FBS, AbCys s.a., Paris). Cells were plated on 10-cm diameter tissue culture dish and grown in a 5% CO2 incubator at 37° C. with saturating humidity with medium changes every 2 days. […]

[2] = test system: cardiac myoblasts; experiment: Reactive oxygen species assessment (carboxy-DCFDA) in cardiac myoblasts; assay type: cell-based; conditions: ApoO cells vs control (FIG. 4D)
Description: (§1) After ethical committee approval, all patients in this study gave written consent for sample collection and molecular analysis prior to inclusion. Patients were carefully selected by physicians from the Department of Cardiology, Toulouse University Hospital, prior to coronary by-pass surgery. Bioinformatics. Microarray expression data from human heart samples were downloaded from the GEO repository (GSE1145). This series consisted of 107 myocardial samples collected from patients undergoing cardiac transplantation whose failure arises from different etiologies (e.g. idiopathic dilated cardiomyopathy, ischemic cardiomyopathy, valvular cardiomyopathy, and hypertrophic cardiomyopathy) and from “normal” organ donors whose hearts cannot be used for transplants. Arrays were intensity normalized and hierarchical clustering (average group linkage, Pearson correlation, threshold r=0.8) was applied to identify groups of co-expressed genes. […] All ApoO sequences within the expression vectors were verified by DNA double strand sequencing using ABI PRISM®BigDye™ Terminator version 3.1 Ready reaction cycle sequencing kit (Life Technologies SAS, Villebon sur Yvette) and loaded on an ABI 3130XL DNA sequencing instrument (Life Technologies SAS, Villebon sur Yvette). […]

[3] = test system: cytochrome C oxidase; experiment: Cytochrome C oxidase activity in cardiac myoblasts; assay type: cell-based; conditions: ApoO cells vs control
Description: as §1

B1: ApoO: 198-amino acid apolipoprotein, SEQ ID NO: 1; tested by overexpression from expression vectors or transgene (protein, listed as Homo sapiens)
chain: MFKVIQRSVGPASLSLLTFKVYAAPKKDSPPKNSVKVDELSLYSVPEGQSKYVEEARSQLEESISQLRHYCEPYTTWCQETYSQTKPKMQSLVQWGLDSYDYLQNAPPGFFPRLGVIGFAGLIGLLLARGSKIKKLVYPPGFMGLAASLYYPQQAIVFAQVSGERLYDWGLRGYIVIEDLWKENFQKPGNVKNSPGTK
[1]; 48 hours after transfection (FIG. 9e)
  Caspase-3 activity in liver: confirmed
[1]; 48 hours after transfection (FIG. 9d)
  Bax expression in liver: confirmed
[1]; ApoO transfected liver vs control vector (FIG. 8c)
  diglyceride levels in liver: increased
[1]; ApoO transfected liver vs control vector (FIG. 8d)
  intracellular triglycerides in liver: did not significantly modify
[1]; in vivo transfected mouse liver
  oxygen consumption of isolated liver mitochondria: significant increase
[2]
  intracellular reactive oxygen species (ROS): increases
[3]
  cytochrome C oxidase activity: increase
